# Experimental data from the supplement of paper PMC12338614.
# ± gives the uncertainty stated by the source.
# B1: library; numbered along this chain (parent)
# chain: MEVVDPQQLGMFTEGELMSVGMDTFIHRIDSTEVIYQPRRKRAKLIGKYLMGDLLGEGSYGKVKEVLDSETLCRRAVKILKKKKLRRIPNGEANVKKEIQLLRRLRHKNVIQLVDVLYNEEKQKMYMVMEYCVCGMQEMLDSVPEKRFPVCQAHGYFCQLIDGLEYLHSQGIVHKDIKPGNLLLTTGGTLKISDLGVAEALHPFAADDTCRTSQGSPAFQPPEIANGLDTFSGFKVDIWSAGVTLYNITTGLYPFEGDNIYKLFENIGKGSYAIPGDCGPPLSDLLKGMLEYEPAKRFSIRQIRQHSWFRKKHPPAEAPVPIPPSPDTKDRWRSMTVVPYLEDLHGADEDEDLFDIEDDIIYTQDFTVPGQVPEEEASHNGQRRGLPKAVCMNGTEAAQLSTKSRAEGRAPNPARKACSASSKIRRLSACKQQ
# Variants of: B1
# Experiment: STK11 functional score (HeLa growth suppression), rescaled enrichment; synonymous median = 1, nonsense median = 0 (normalised score)
# Settings: with HeLa; variant type: missense
# How it was run: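 The values are functional scores: wild-type-corrected log ratios of post- versus pre-selection abundance, rescaled to synonymous and nonsense medians, merged over codons and replicate transfections, and carrying bootstrapped error. They derive from codon-randomised (POPCode), codon-optimised STK11 libraries that Bxb1 integrated at an AAVS1 landing pad in HeLa, with three transfections for each of three regions. Sequencing of tiled gDNA amplicons ran on NextSeq, at ~2 million reads per tile.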
row,Variant,STK11 functional score
1,MEVVDPQQLGMFTEGELMSVGMDTFIHRIDSTEVIYQPRRKRAKLIGKYLMGDLLGEGSYGKVKEVLDSETLCRRAVKILKKKKLRRIPNGEANVKKEIQLLRRLRHKNVIQLVDVLYNEEKQKMYMVMEYCVCGMQEMLDSVPEKCFPVCQAHGYFCQLIDGLEYLHSQGIVHKDIKPGNLLLTTGGTLKISDLGVAEALHPFAADDTCRTSQGSPAFQPPEIANGLDTFSGFKVDIWSAGVTLYNITTGLYPFEGDNIYKLFENIGKGSYAIPGDCGPPLSDLLKGMLEYEPAKRFSIRQIRQHSWFRKKHPPAEAPVPIPPSPDTKDRWRSMTVVPYLEDLHGADEDEDLFDIEDDIIYTQDFTVPGQVPEEEASHNGQRRGLPKAVCMNGTEAAQLSTKSRAEGRAPNPARKACSASSKIRRLSACKQQ [R147C],1.26 ± 0.076
2,MEVVDPQQLGMFTEGELMSVGMDTFIHRIDSTEVIYQPRRKRAKLIGKYLMGDLLGEGSYGKVKEVLDSETLCRRAVKILKKKKLRRIPNGEANVKKEIQLLRRLRHKNVIQLVDVLYNEEKQKMYMVMEYCVCGMQEMLDSVPEKRFPVCQAHGYFCQLIDGLEYCHSQGIVHKDIKPGNLLLTTGGTLKISDLGVAEALHPFAADDTCRTSQGSPAFQPPEIANGLDTFSGFKVDIWSAGVTLYNITTGLYPFEGDNIYKLFENIGKGSYAIPGDCGPPLSDLLKGMLEYEPAKRFSIRQIRQHSWFRKKHPPAEAPVPIPPSPDTKDRWRSMTVVPYLEDLHGADEDEDLFDIEDDIIYTQDFTVPGQVPEEEASHNGQRRGLPKAVCMNGTEAAQLSTKSRAEGRAPNPARKACSASSKIRRLSACKQQ [L167C],1.13 ± 0.77
3,MEVVDPQQLGMFTEGELMSVGMDTFIVRIDSTEVIYQPRRKRAKLIGKYLMGDLLGEGSYGKVKEVLDSETLCRRAVKILKKKKLRRIPNGEANVKKEIQLLRRLRHKNVIQLVDVLYNEEKQKMYMVMEYCVCGMQEMLDSVPEKRFPVCQAHGYFCQLIDGLEYLHSQGIVHKDIKPGNLLLTTGGTLKISDLGVAEALHPFAADDTCRTSQGSPAFQPPEIANGLDTFSGFKVDIWSAGVTLYNITTGLYPFEGDNIYKLFENIGKGSYAIPGDCGPPLSDLLKGMLEYEPAKRFSIRQIRQHSWFRKKHPPAEAPVPIPPSPDTKDRWRSMTVVPYLEDLHGADEDEDLFDIEDDIIYTQDFTVPGQVPEEEASHNGQRRGLPKAVCMNGTEAAQLSTKSRAEGRAPNPARKACSASSKIRRLSACKQQ [H27V],1.05 ± 0.12
4,MEVVDPQQLGMFTEGELMSVGMDTFIHRIDSTEVIYQPRRKRAKLIGKYLMGDLLGEGSYGKVKEVLDSETLCRRAVKILKKKKLRRIPNGEANVKKEIQLLRRLRHKNVIQLVDVLYNEEKQKMYMVMEYCVCGMQEMLDSVPEKRFPVCQAHGYFCQLIDGLEYLHSQGIVHKDIKPGNLLLTTGGTLKISDLGVAEALHPFAADDTCRTSQGSPAFQPPEIANGLDTFSGFKVDIWSAGVTLYNITTGLYPFEGDNIYKLFENIGKGFYAIPGDCGPPLSDLLKGMLEYEPAKRFSIRQIRQHSWFRKKHPPAEAPVPIPPSPDTKDRWRSMTVVPYLEDLHGADEDEDLFDIEDDIIYTQDFTVPGQVPEEEASHNGQRRGLPKAVCMNGTEAAQLSTKSRAEGRAPNPARKACSASSKIRRLSACKQQ [S271F],1.03 ± 0.34
5,MEVVDPQQLGMFTEGELMSVGMDTFIHRIDSTEVIYQPRRKRAKLIGKYLMGDLLGEGSYGKVKEVLDSETLCRRAVKILKKKKLRRIPNGEANVKKEIQLLRRLRHKNVIQLVDVLYNEEKQKMYMVMEYCVCGMQEMLDSVPEKRFPVCQAHGYFCQLIDGLEYLHSQGIVHKDIKPGNLLLTTGGRLKISDLGVAEALHPFAADDTCRTSQGSPAFQPPEIANGLDTFSGFKVDIWSAGVTLYNITTGLYPFEGDNIYKLFENIGKGSYAIPGDCGPPLSDLLKGMLEYEPAKRFSIRQIRQHSWFRKKHPPAEAPVPIPPSPDTKDRWRSMTVVPYLEDLHGADEDEDLFDIEDDIIYTQDFTVPGQVPEEEASHNGQRRGLPKAVCMNGTEAAQLSTKSRAEGRAPNPARKACSASSKIRRLSACKQQ [T189R],1.41 ± 0.14
6,MEVVDPQQLGMFTEGELMSVGMDTFIHRIDSTEVIYQPRRKRAKLIGKYLMGDLLGEGSYGKVKEVLDSETLCRRAVKILKKKKLRRIPNGEANVKKEIDLLRRLRHKNVIQLVDVLYNEEKQKMYMVMEYCVCGMQEMLDSVPEKRFPVCQAHGYFCQLIDGLEYLHSQGIVHKDIKPGNLLLTTGGTLKISDLGVAEALHPFAADDTCRTSQGSPAFQPPEIANGLDTFSGFKVDIWSAGVTLYNITTGLYPFEGDNIYKLFENIGKGSYAIPGDCGPPLSDLLKGMLEYEPAKRFSIRQIRQHSWFRKKHPPAEAPVPIPPSPDTKDRWRSMTVVPYLEDLHGADEDEDLFDIEDDIIYTQDFTVPGQVPEEEASHNGQRRGLPKAVCMNGTEAAQLSTKSRAEGRAPNPARKACSASSKIRRLSACKQQ [Q100D],1.57 ± 0.19
7,MEVVDPQQLGMFTEGELMSVGMDTFIHRIDSTEVIYQPRRKRAKLIGKYLMGDLLGEGSYGKVKEVLDSETLCRRAVKILKKKKLRRIPNGEANVKKEIQLLRRLRHKNVIQLVDVLYNEEKQKMYMVMEYCVCGMQEMLDSVPEKRFPVCQAHGYFCQLIDGLEYLHSQGIVHKDIKPGNLLLTTGGTLKISDLGVAEALHPFAADDTCRTSQGSPAFQPPEIANGLDTFSGFKVDIWSAGVTLYNITTGLYPFEGDNIYKLFENIGKGSYAIPGDCGPPLSDLLKGMLEYEPAKRFSIRQIRQHSWFRKKHPPAEAPVPIPPHPDTKDRWRSMTVVPYLEDLHGADEDEDLFDIEDDIIYTQDFTVPGQVPEEEASHNGQRRGLPKAVCMNGTEAAQLSTKSRAEGRAPNPARKACSASSKIRRLSACKQQ [S325H],1.54 ± 0.32
8,MEVVDPQQLGMFTEGELMSVGMDTFIHRIDSTEVIYQPRRKRAKLIGKYLMGDLLGEGSYGKVKEVLDSETLCRRAVKILKKKKLRRIPNGEANVKKEIQLLRRLRHKNVIQLVDVLYNEEKQKMYMVMEYCVCGMQEMLDSVPEKIFPVCQAHGYFCQLIDGLEYLHSQGIVHKDIKPGNLLLTTGGTLKISDLGVAEALHPFAADDTCRTSQGSPAFQPPEIANGLDTFSGFKVDIWSAGVTLYNITTGLYPFEGDNIYKLFENIGKGSYAIPGDCGPPLSDLLKGMLEYEPAKRFSIRQIRQHSWFRKKHPPAEAPVPIPPSPDTKDRWRSMTVVPYLEDLHGADEDEDLFDIEDDIIYTQDFTVPGQVPEEEASHNGQRRGLPKAVCMNGTEAAQLSTKSRAEGRAPNPARKACSASSKIRRLSACKQQ [R147I],1.22 ± 0.2
9,MEVVDPQQLGMFTEGELMSVGMDTFIHRIDSTEVIYQPRRKRAKLIGKYLMGDLLGEGSYGKVKEVLDSETLCRRAVKILKKKKLRRIPNGEANVKKEIQLLRRLRHKNVIQLVDVLYNEEKQKMYMVMEYCVCGMQEMLDSVPEKRFPVCQAHGYFCQLIDGLEYLHSQGIVHKDIKPGNLLLTTGGTLKISDLGVAEALHPFAADDTCRTSQGSPAFQPPEIANGLDTFSGFKVDIWSAGVTLYNITTGLYPFEGDNIYKLFENIGKGSYAIPGDCGPPLSDLLKGMLEYEPAKRFSIRQIRQHSWFRKKHPPAEAPVPIPPSPDTKDRWRSMTVVPYLEDLHGADEDEDLFDIEDDLIYTQDFTVPGQVPEEEASHNGQRRGLPKAVCMNGTEAAQLSTKSRAEGRAPNPARKACSASSKIRRLSACKQQ [I360L],1.13 ± 0.16
10,MEVVDPQQLGMFTEGELMSVGMDTFIHRIDSTEVIYQPRRKRAKLIGKYLMGDLLGEGSYGKVKEVLDSETLCRRAVKILKKKKLRRIPNGEANVKKEIQLLRRLRHKNVIQLVDVLYNEEKQKMYMVMEYCVCGMQEMLDSVPEKRFPVCQAHGYFCQLIDGLEYLHSQGIVHKDIGPGNLLLTTGGTLKISDLGVAEALHPFAADDTCRTSQGSPAFQPPEIANGLDTFSGFKVDIWSAGVTLYNITTGLYPFEGDNIYKLFENIGKGSYAIPGDCGPPLSDLLKGMLEYEPAKRFSIRQIRQHSWFRKKHPPAEAPVPIPPSPDTKDRWRSMTVVPYLEDLHGADEDEDLFDIEDDIIYTQDFTVPGQVPEEEASHNGQRRGLPKAVCMNGTEAAQLSTKSRAEGRAPNPARKACSASSKIRRLSACKQQ [K178G],0.325 ± 0.098
11,MEVVDPQQLGMFTEGELMSVGMDTFIHRIDSTEVIYQPRRKRAKLIGKYLMGDLLGEGSYGKVKEVLDSETLCRRAVKILKKKKLRRIPNGEANVKKEIQLLRRLRHKNVIQLVDVLYNEEKQKMYMVMEYCVCGMQEMLDSVPEKRFPVCQAHGYFCQLIDGLEYLHSQGIVHKDIKPGNLLLTTGGTLKISDLGVAEALHPFAADDTCRTSQGSPAFQPPEIANGLDTFSGFKVDIWSAGVTLYNITTGLYPFEGDNIYKLFENIGKGSYAIPGDCGPPLSDLLKGMLEYEPAKRFSIRQIRQHSWFRKKHPPAEAPVPIPPSPDTKDRWRSMTVVPYLEDLHGADEDEDLFDIEDDIIYTQDFTVPGQVPEEEASHNGQRRGLPKAVCMNGTEAAQLSTKSRAEGRAPNPARKASSASSKIRRLSACKQQ [C418S],1.51 ± 0.17
12,MEVVDPQQLGMFTEGELMSVGMDTFIHRIDSTEVIYQPRRKRAKLIGKYLMGDLLGEGSYGKVKEVLDSETLCRRAVKILKKKKLRRIPNGEANVKKEIQLLRRLRHKNVIQLVDVLYNEEKQKMYMVMEYCVCGMQEMLDSVPEKRFPVCQAHGYFCQLIDGLEYLHSQGIVHKDIKPGNLLLTTGGTLKISDLGVAEALHPFAADDTCRTSQGSPAFQPPEIANGLDTFSGFKVDIWSAGVTLYNITTGLYPFEGDNIYKLFENIGKGSYAIPGDCGPPLSDLLKGMLEYEPAKRFSIRQIRQHSWFRKKHPPAEAPVPIPPSPDTKDRWRSMTVVPYLEDLHGADEDEDLFDIEDDIIYTQDFTVPGQVPEEEASHNGQRRGLPKAVCMNGFEAAQLSTKSRAEGRAPNPARKACSASSKIRRLSACKQQ [T395F],0.847 ± 0.36
13,MEVVDPQQLGMFTEGELMSVGMDTFIHRIDSTEVIYQPRRKRAKLIGKYLMGDLLGEGSYGKVKEVLDSETLCRRAVKILKKKKLRRIPNGEANVKKEIQLLRRLRHKNVIQLVDVLYNEEKQKMYMVMEYCVCGMQEMLDSVPEKRFPVCQAHGYFCQLIDGLEYLHSQGIVHKDIKPGNLLLTTGGTLKISDLGVAEALHPFAADDTCRTSQGSPAFQPPEIANGLDTFSGFKVDIWSAGVTLYNITTGLYPFEGDNIYKLFENIGKGSYAIPGDCGPPLSDLLKGMLEYEPAKRFSIRQIRQHSWFRKKHPPAEAPVPIPPSPVTKDRWRSMTVVPYLEDLHGADEDEDLFDIEDDIIYTQDFTVPGQVPEEEASHNGQRRGLPKAVCMNGTEAAQLSTKSRAEGRAPNPARKACSASSKIRRLSACKQQ [D327V],1.31 ± 0.46
14,MEVVDPQQLGMFTEGELMSVGMDTFIHRIDSTEVIYQPRRKRAKLIGKYLMGDLLGEGSYGKVKEVLDSETLCRRAVKILKKKKLRRIPNGEANVKKEIQLLRRLRHKNVIQLVDVLYNEEKQKMYMVMEYCVCGMQEMLDSVPEKRFPVCQAHGYFCQLIDGLEYLHSQGIVHKDIKPGNLLLTTGGTLKISDLGVAEALHPFAADDTCRTSQGSPAFQPPEIANGLDTFSGFKVDIWSAGVTLYNITTGLYPFEGDNIYKLFENIGKGSYAIPGDCGPPLSDLLKGMLEYEPAKRFSIRQIRQHSWFRKKHPPAEAPVPIPPSPDTKDRWRSMTVVPYLEDHHGADEDEDLFDIEDDIIYTQDFTVPGQVPEEEASHNGQRRGLPKAVCMNGTEAAQLSTKSRAEGRAPNPARKACSASSKIRRLSACKQQ [L344H],1.14 ± 0.19
